Source: PMC12853789, “Identification of receptor-binding domains of Bacteroidales antibacterial pore-forming toxins” (The Journal of Biological Chemistry, 2025)

Biological target: T1, BSAP-1 (BF638R_1646), recombinant soluble protein with N-terminal His tag (Bacteroides fragilis 638R, UniProt E1WTV1 17-372)
T1 construct: BSAP-1 of Bacteroides fragilis 638R (BF638R_1646, GenBank CBW22174.1), without the N-terminal signal peptide and the lipidated cysteine (C16); the protein ends at P372; a Ser-Ser-Gly linker follows the His tag; Limits follow from 'excluding the signal peptide and conserved cysteine' (C16) and the CTD's end at P372; no cleavage of the tag is told; also called full-length BSAP-1; purified BSAP-1; …
T1 sequence: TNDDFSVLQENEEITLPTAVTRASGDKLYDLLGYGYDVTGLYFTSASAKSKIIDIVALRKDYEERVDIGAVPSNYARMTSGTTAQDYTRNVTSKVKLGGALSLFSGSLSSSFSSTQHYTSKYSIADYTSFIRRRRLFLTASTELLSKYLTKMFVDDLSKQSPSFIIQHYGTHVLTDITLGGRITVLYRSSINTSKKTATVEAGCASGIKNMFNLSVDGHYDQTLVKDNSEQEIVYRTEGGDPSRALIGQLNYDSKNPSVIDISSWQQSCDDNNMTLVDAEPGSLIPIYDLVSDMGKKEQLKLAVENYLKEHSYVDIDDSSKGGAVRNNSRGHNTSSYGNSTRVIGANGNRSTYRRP
Test: cryo-EM structure; peak 1 fractions of the BSAP-1 pull-down, in DDM, graphene oxide coated grids; map of the complex ~7 Å, local refinement on B1R^S 4.45 Å
Conditions: one partner purified

B1: B1R^S, BSAP-1 receptor (BF9343_1563), untagged, overexpressed in Bacteroides thetaiotaomicron (receptor, Bacteroides fragilis NCTC 9343, UniProt Q5LEV6 1-556, looked up)
chain: QTVYDAAKITGKDLNGTARFVGMGGAMGALGGDISTIGTNPAGIGIYRSNDFMTSFGFSSYGTESKYLGDKFKSDKIQGSFDNLGFVFASKIGNETSLRYVNFGFNYHKAKSFYKNMNMKGGLGNSSQTYQMAQQASGITKWGDYPYDDPEIGWLSILGYDGWLISDITTDKMNAAGKPNSPYVDKDGNQRYDANGKPLYTTPGNYYGMYDDGVANFHSQERGGIDQYDFNVAFNFNDRFYLGLTLGAYAVDYSKYTYYSEAYTGANAPQNYNLRSWNKVRGSGFDLKLGTIIRPFENSPFRIGLAIHTPTFYNLDYKTSARVESDVLNVETGKIDQWSVDTRDKLPGNGDMVREFRLQTPWTYNVSLGYTIGTSLALGAEYEYQDYSTMKFRGPTGSSSEFTFENSTRPMMKGVNTLRLGLEYKVIPQFALRAGYNYTSAIFHGDAFKDLPYYSIQTDTDWANTKALSNYTLGIGYRGSVFYADLAYKFSTYNEDFYPFVNKYEENNATTVLTPETTKVTNTRSQVLFTLGLRF
notes: B1R^S, outer membrane beta-barrel protein of Bacteroides fragilis NCTC 9343 (BF9343_1563, GenBank CAH07344.1); theoretical molecular weight 62 kDa; untagged; in the pull-down it stood in a membrane fraction, in microscopy on cells
For B1, the “stoichiometry N” value was 1.
